Consider two substances from PMC10996437.

Assay [1] concerns the target Poly-His tagged murine FAM72A (mouse) (UniProt Q8BFZ8). Kind of assay: BLI. A general note: BLI is a label-free optical method that tracks binding on a fibre tip over time.
For assay [2] the target is unchanged. Nature of the assay: BLI. The source holds these as a separate data set.

Like-named read-outs stand apart in the source and are kept apart here.

Chain of UniProt Q8BFZ8 (Q8BFZ8 whole entry): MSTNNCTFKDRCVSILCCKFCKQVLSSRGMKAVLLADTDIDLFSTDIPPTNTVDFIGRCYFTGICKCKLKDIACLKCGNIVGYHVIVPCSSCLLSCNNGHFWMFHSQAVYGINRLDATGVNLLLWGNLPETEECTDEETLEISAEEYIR

Turning to “murine uracil-DNA glycosylase, nuclear form (mUNG2), untagged (enzyme)”, in assay [1], the Kd (usually the concentration at which binding is half-saturated) was found to be 600 nM, the koff (usually a measure of how fast the partners let go of each other) amounted to 0.023 s⁻¹ and the kon (commonly the second-order rate constant of association) was 43000 M⁻¹ s⁻¹.
In assay [1], “synthetic polypeptide containing the first 25 aa of mUNG2, C-terminal biotin” gave a Kd of 1.9 nM and an off-rate (koff) of 0.037 s⁻¹. In assay [2], the Kd was found to be 188 nM.
